From PMC4442108, “Preclinical Validation of the Heparin-Reactive Peptide p5+14 as a Molecular Imaging Agent for Visceral Amyloidosis” (Molecules, 2015) come the findings set out here.

In general, EC50 refers to the concentration that produces a half-maximal response.

Where no end group is shown, it is not given here. The star is where a group is joined. 125I = [125I]*

Data set [1] can be described thus: Dynamic PET/CT pharmacokinetics of 124I-p5+14 in WT mice. It is filed as in vivo, mouse (WT). The conditions noted are these: post injection. As to the method: Dynamic PET imaging required radioiodination of the peptide with positron emitter, Iodine-124 (^124I; IBA Molecular, Sterling, WV, USA). Peptide p5+14 was radiolabeled using the Iodogen (Piercechemical, Rockford, IL, USA) oxidation method, as described. Briefly, 10 µL of 0.5 M NaPO4 buffer pH 7.6 was added to a 1.5 mL microcentrifuge tube followed by addition of ~50 µL of ^124I (~2 mCi). One µL of 2 mg/mL fresh ascorbic acid solution in phosphate buffered saline (PBS) was added to ensure complete reduction of ^124I-iodine. Approximately 25 µL (~50 µg) of peptide dissolved in distilled H2O was mixed with ~75 µL of PBS and added to the reaction mixture. Seven µL of 1 mg/mL Iodogen dissolved in acetonitrile was added to initiate the reaction. After 2 min, the reaction was quenched by addition of 50 µL of 2 mg/mL ascorbic acid. Twenty µL of blue dextran and 50 µL of filtered (0.2 µm pore sized) 0.1% gelatin in PBS were added to the reaction mixture. Radiolabeled product was separated from free ^124I by size exclusion chromatography as described above. Fractions were manually collected as the blue dextran marker reached the base of the column and the radioactivity in each measured using a dose calibrator (Capintec, Model 15, Ramsey, NJ, USA) set for ^124I detection. Peak fractions were pooled for use in the study, and radiopurity was assessed as described above. […]

Data set [2] can be described thus: Solution stability (stated, unpublished data). The conditions noted are these: Wall and Kennel. In kind it is physicochemical.
In data set [3] the target is synthetic amyloid fibrils of recombinant human λ6 light chain variable domain of patient Wil (rVλ6Wil) (human). The data set is described as follows: co-sedimentation; ex vivo amyloid binding assay: 25 µL of 1 mg/mL synthetic rVλ6Wil fibrils resuspended in 200 µL PBS with 0.05% Tween-20, ~5 ng 125I-p5+14 added, rotated at RT for 1 h, centrifuged twice at 15,000 x g; % of counts in the pellet.

Data set [4] has the same target. The data set is described as follows: co-sedimentation; peptide binding assay with rVλ6Wil fibrils in suspension in 10 mM phosphate buffer (pH 7.6) containing 0.15 (PBS), 0.25, 0.5, 1.0 or 2.0 M NaCl; bound peptide as % total counts added; n = 2.
Data set [5] has the same target. The data set is described as follows: ELISA; EuLISA: rVλ6Wil fibrils coated and dried on NUNC Maxisorb wells (8 µg/mL, 50 µL, overnight 37 °C), blocked with 1% BSA; biotinylated p5+14 1 x 10^-10 to 1 x 10^-6 M, 1 h at 37 °C, PBS with 0.05% Tween 20; europium/streptavidin detection; n = 3.

For the molecule “GGGYSKAQKAQAKQAKQAQKAQKAQAKQAKQAQKAQKAQAKQAKQ [p5+14]”, the “time to clearance from healthy organs” value in data set [1] is not above 2 h. Further, in data set [2], the “solution stability relative to p5” value is “greater solution stability”.

For GGGY(125I)SKAQKAQAKQAKQAQKAQKAQAKQAKQAQKAQKAQAKQAKQ [125I-p5+14 (radioiodinated peptide p5+14)], the % bound in data set [3] is 95.7%. Further, in data set [4], the % bound at 2 M NaCl was 20%, the % bound at the lowest NaCl concentration (0.15 M) turned out to be 95% and the NaCl concentration at half-maximal loss of binding (printed as EC50) amounted to 1 M.

C(maleimide‑biotin)GGGYSKAQKAQAKQAKQAQKAQKAQAKQAKQAQKAQKAQAKQAKQ [biotinylated p5+14 (with a cysteine residue at the N-terminal)]: in data set [5], the EC50 is 15 nM.
